Measurements reported in the RNAGym collection of RNA variant scans (doi:10.7554/elife.80360).

B1: HDV Ribozyme (parent)
chain: GGCCGGCAUGGUCCCAGCCUCCUCGCUGGCGCCGGCUGGGCAACAUUCCGAGGGGACCGUCCCCUCGGUAAUGGCGAAUGGGACCCA

Variants of: B1
Assay: self-cleavage, relative activity (ratio to wild type); higher = more cleavage; co-transcriptional
GGCCCGCAUGGUCCCAGCCUCCUCGCUGGCGCCGGCUGGGCAACAUUCCGAGGGGACCGUCCCCUCGGUAAUGGCGAAUGGCACCCA [G5C G82C] showed a self-cleavage of 0. GGCCUGCAUGGUCCCAGCCUCCUCGCUGGCGCCGGCUGGGCAACAUUCCGAGGGGACCGUCCCCUCGGUACUGGCGAAUGGGACCCA [G5U A71C] gave a self-cleavage of 0. For GGCCUGCAUGGUCCCAGCCUCCUCGCUGGCGCCGGCUGGGCAACAUUCCGAGGGGACCGUCCCCUCGGUAUUGGCGAAUGGGACCCA [G5U A71U], the self-cleavage was 0.185. For GGCCUGCAUGGUCCCAGCCUCUUCGCUGGCGCCGGCUGGGCAACAUUCCGAGGGGACCGUCCCCUCGGUAAUGGCGAAUGGGACCCA [G5U C22U], the self-cleavage was 0.158. With GGCCCGCAUGGUCCCAGCCUCCUCGCUGGCGCCGGCUGGGCAACAUUCCGAGAGGACCGUCCCCUCGGUAAUGGCGAAUGGGACCCA [G5C G53A] the self-cleavage was 0.162. In the case of GGCCCGCAUGGUCCCAGCCUCCUCGCUGGCGCCGGCUGGGCAACAUUCCGAGGAGACCGUCCCCUCGGUAAUGGCGAAUGGGACCCA [G5C G54A], the self-cleavage is reported as 0.0831. For GGCCCGCAUGGUCCCAGCCUCCUCGCGGGCGCCGGCUGGGCAACAUUCCGAGGGGACCGUCCCCUCGGUAAUGGCGAAUGGGACCCA [G5C U27G], the self-cleavage was 0.302. With GGCCCGCAUGGUCCCAGCCUCCUCGCUGGCGCCGGCUGGGCAACAUUCCGAGGGGACCGUCCCCUCGGUAAUGGCAAAUGGGACCCA [G5C G76A] the self-cleavage was 0.415. Work on GGCCUGCAUGGUCCCAGCCUCCUCGCUGGCGCCGGCUGGGCAACAUUCCGAGGGGAACGUCCCCUCGGUAAUGGCGAAUGGGACCCA [G5U C57A] yielded a self-cleavage of 0.383. Work on GGCCUGCAUCGUCCCAGCCUCCUCGCUGGCGCCGGCUGGGCAACAUUCCGAGGGGACCGUCCCCUCGGUAAUGGCGAAUGGGACCCA [G5U G10C] yielded a self-cleavage of 0.462. GGCCUGCAUUGUCCCAGCCUCCUCGCUGGCGCCGGCUGGGCAACAUUCCGAGGGGACCGUCCCCUCGGUAAUGGCGAAUGGGACCCA [G5U G10U] showed a self-cleavage of 0.181. With GGCCCGCAUGGUCCCAGCCUCCUCGCUGGCGCCGGCUGGGCAACAUUCCGAGGGGACCGUCCCCUCGGUAACGGCGAAUGGGACCCA [G5C U72C] the self-cleavage was 0.123. GGCCCGCAGGGUCCCAGCCUCCUCGCUGGCGCCGGCUGGGCAACAUUCCGAGGGGACCGUCCCCUCGGUAAUGGCGAAUGGGACCCA [G5C U9G] showed a self-cleavage of 0.111. Variant GGCCCGCACGGUCCCAGCCUCCUCGCUGGCGCCGGCUGGGCAACAUUCCGAGGGGACCGUCCCCUCGGUAAUGGCGAAUGGGACCCA [G5C U9C] has a self-cleavage of 0.312. Variant GGCCUGCAUGGUCCCUGCCUCCUCGCUGGCGCCGGCUGGGCAACAUUCCGAGGGGACCGUCCCCUCGGUAAUGGCGAAUGGGACCCA [G5U A16U] has a self-cleavage of 0.0978. Variant GGCCUGCAUGGUCCCCGCCUCCUCGCUGGCGCCGGCUGGGCAACAUUCCGAGGGGACCGUCCCCUCGGUAAUGGCGAAUGGGACCCA [G5U A16C] has a self-cleavage of 0.383. Variant GGCCCGCAUGGUCCCAGCCUCCUCGCUGGCGCCGGCUGGGCAACAUUCCUAGGGGACCGUCCCCUCGGUAAUGGCGAAUGGGACCCA [G5C G50U] has a self-cleavage of 0.0361. Variant GGCCUGCAUGGUCCCAGCCUCCUCGCUGGCGCCGGCUGGGCACCAUUCCGAGGGGACCGUCCCCUCGGUAAUGGCGAAUGGGACCCA [G5U A43C] has a self-cleavage of 0. With GGCCCGCAUGGUCCCAGCCUCCUCGCUGGCGCCGGCCGGGCAACAUUCCGAGGGGACCGUCCCCUCGGUAAUGGCGAAUGGGACCCA [G5C U37C] the self-cleavage was 0.161. GGCCUGCAUGGUCCCAGCCUCCUCGCUGGCGCCGGCUGGGCCACAUUCCGAGGGGACCGUCCCCUCGGUAAUGGCGAAUGGGACCCA [G5U A42C] showed a self-cleavage of 0.178. With GGCCUGCAUGGUCCCAGACUCCUCGCUGGCGCCGGCUGGGCAACAUUCCGAGGGGACCGUCCCCUCGGUAAUGGCGAAUGGGACCCA [G5U C18A] the self-cleavage was 0.0875. In the case of GGCCUGUAUGGUCCCAGCCUCCUCGCUGGCGCCGGCUGGGCAACAUUCCGAGGGGACCGUCCCCUCGGUAAUGGCGAAUGGGACCCA [G5U C7U], the self-cleavage is reported as 0. In the case of GGCCUGGAUGGUCCCAGCCUCCUCGCUGGCGCCGGCUGGGCAACAUUCCGAGGGGACCGUCCCCUCGGUAAUGGCGAAUGGGACCCA [G5U C7G], the self-cleavage is reported as 0.104. In the case of GGCCUGCAUGGUCCCAGCCUCCUCGCUGGCGCCGGCUGGGCAACAUUCCGAGGGGACCGUCCCCUCGGUAAUGGCGAAUGGGACCGA [G5U C86G], the self-cleavage is reported as 0.26. With GGCCCGCAUGGUCCCAGCCUCCUCGCUGGCGCCGGCUGGGCAACAUUCCGAGGGGACCGUCCCCUCGGUAAUGGCGAAUCGGACCCA [G5C G80C] the self-cleavage was 0.17. Work on GGCCCGCAUGGUCCCAGCCUCCUCGCUGGCGCCGGCUGGGCAACAUUCCGAGGGGACCGUCCCCUCGGUAAUGUCGAAUGGGACCCA [G5C G74U] yielded a self-cleavage of 0.161. Variant GGCCCGCAUGGUCCCAGCCUCCUCGCUGGCGCCGGCUGGGCAACAUUCCGAGGGGACCGUCCCCUCGGUAAUGCCGAAUGGGACCCA [G5C G74C] has a self-cleavage of 0.0978. In the case of GGCCUGCAUGGUCCCAGCCUCCUCGCUGGCGCCGGCUGGGCAACAUUCCGAGGGGACCGUCCCCUCGGUAAUGGUGAAUGGGACCCA [G5U C75U], the self-cleavage is reported as 0.0573. In the case of GGCCUGCAUGGUCCCAGCCUCCUCGCUGGCGCCGGCUGGGCAACUUUCCGAGGGGACCGUCCCCUCGGUAAUGGCGAAUGGGACCCA [G5U A45U], the self-cleavage is reported as 0.277. With GGCCUGCAUGGUCCCAGCCUCCUCGCUGGAGCCGGCUGGGCAACAUUCCGAGGGGACCGUCCCCUCGGUAAUGGCGAAUGGGACCCA [G5U C30A] the self-cleavage was 0.0462. In the case of GGCCCGCAUGGGCCCAGCCUCCUCGCUGGCGCCGGCUGGGCAACAUUCCGAGGGGACCGUCCCCUCGGUAAUGGCGAAUGGGACCCA [G5C U12G], the self-cleavage is reported as 0.0831. GGCCCGCAUGGACCCAGCCUCCUCGCUGGCGCCGGCUGGGCAACAUUCCGAGGGGACCGUCCCCUCGGUAAUGGCGAAUGGGACCCA [G5C U12A] showed a self-cleavage of 0.0791.
